In paper PMC4319847 (PLoS ONE, 2015):

Target: Full-length human importin-α1 (h-importin-α1) (1–526) (human, UniProt P52292 1-526)
Experiment: ITC
Details: both partners purified

PKKKRKV (source: synthetic peptide) [SV40 NLS peptide (PKKKRKV)] was tested, and the Kd was 102 ± 11 µM.
